The target of data set [1] is T1, MtHCP (hybrid cluster protein, class I) (Methanothermococcus thermolithotrophicus, UniProt A0AA82WPD8).
T1 construct: gene hcp; native anaerobic purification from the archaeon, untagged; five extra N-terminal residues versus WP_026182881.1 (mispredicted start Met)
T1 sequence (A0AA82WPD8 1-548): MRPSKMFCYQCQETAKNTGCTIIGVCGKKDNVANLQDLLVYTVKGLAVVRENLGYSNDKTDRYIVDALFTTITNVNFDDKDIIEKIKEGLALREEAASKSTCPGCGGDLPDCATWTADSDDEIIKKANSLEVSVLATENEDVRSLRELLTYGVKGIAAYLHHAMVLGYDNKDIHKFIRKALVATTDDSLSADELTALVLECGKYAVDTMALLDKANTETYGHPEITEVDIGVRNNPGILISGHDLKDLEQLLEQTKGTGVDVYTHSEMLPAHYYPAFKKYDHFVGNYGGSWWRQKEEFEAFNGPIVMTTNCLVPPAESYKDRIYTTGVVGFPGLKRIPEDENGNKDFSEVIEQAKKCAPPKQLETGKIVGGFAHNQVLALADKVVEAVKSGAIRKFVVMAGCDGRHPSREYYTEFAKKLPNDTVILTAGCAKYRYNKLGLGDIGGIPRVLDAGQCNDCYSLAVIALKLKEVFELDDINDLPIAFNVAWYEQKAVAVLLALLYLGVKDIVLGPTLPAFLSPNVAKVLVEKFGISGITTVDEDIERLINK
Briefly: X-ray crystal structure, […] Å. The data set is classed as binding. As to conditions: as isolated, reduced state (MtHCPred).

Substrate in the data set “purified protein”: NO
In words: purified protein. The data set is classed as biochemical, Methanothermococcus thermolithotrophicus. Particulars: 10 mM methyl viologen, 75 μM dithionite, 10 μM EDTA, 50 mM HEPES pH 7.35, 50°C, anaerobic.

Regarding `[S]12[Fe]3[S]4[Fe]1[S]1[Fe]2[S]3[Fe]41` [[4Fe-4S] cluster], in data set [1], the “X-ray crystal structure, 1.45 Å” value is “harbouring a cubane [4Fe-4S] cluster and the hybrid cluster”.

B1: MtHCP (hybrid cluster protein, class I) (Methanothermococcus thermolithotrophicus DSM 2095) (protein)
chain: T1 sequence (A0AA82WPD8 1-548)
notes: native anaerobic purification from the archaeon, untagged; five extra N-terminal residues versus WP_026182881.1 (mispredicted start Met)
As for B1, in the data set “purified protein”, the Km is 2.2 ± 0.5 mM and the kcat came to 0.072 s⁻¹.

As usually defined, the Km is the concentration of substrate that gives half-maximal velocity. As a reminder, the kcat is the maximal rate divided by the concentration of active sites.

The record behind these values is publication PMC10210160, “Structural and biochemical elucidation of class I hybrid cluster protein natively extracted from a marine methanogenic archaeon” (Frontiers in Microbiology, 2023).
